B1: MB-Ⅰ 鼠源抗LILRB4单克隆抗体 (mouse IgG1, Ck) (antibody)
heavy: QVQLQESGAELVKPGASVKLSCKASGYTFTNYWMHWVKQRPGQGLEWIGEINPSNGRTNYNEKFKTKATLTVDKSSSTAYMQLSSLTSEDSAVYYCARWGQLGLREGYYAVDYWGQGTSVTVSSAKTTPPSVYPLAPGSAAQTNSMVTLGCLVKGYFPEPVTVTWNSGSLSSGVHTFPAVLQSDLYTLSSSVTVPSSTWPSETVTCNVAHPASSTKVDKKIVPRDCGCKPCICTVPEVSSVFIFPPKPKDVLTITLTPKVTCVVVDISKDDPEVQFSWFVDDVEVHTAQTQPREEQFNSTFRSVSELPIMHQDWLNGKEFKCRVNSAAFPAPIEKTISKTKGRPKAPQVYTIPPPKEQMAKDKVSLTCMITDFFPEDITVEWQWNGQPAENYKNTQPIMDTDGSYFVYSKLNVQKSNWEAGNTFTCSVLHEGLHNHHTEKSLSHSPG
light: DIVMTQSPSSLSASLGDRVTISCRASQDISNYLNWYQQKPDGTVKLLIYYTSRLHSGVPSRFSGSGSGTDYSLTISNLEQEDIATYFCQQGNTLPPTFGGGTKLEIKADAAPTVSIFPPSSEQLTSGGASVVCFLNNFYPKDINVKWKIDGSERQNGVLNSWTDQDSKDSTYSMSSTLTLTKDEYERHNSYTCEATHKTSTSPIVKSFNRNEC
notes: also called MB-I; 鼠源抗体MB-Ⅰ
B2: MA-Ⅰ 鼠源抗LILRB4单克隆抗体 (mouse IgG1, Ck) (antibody)
heavy: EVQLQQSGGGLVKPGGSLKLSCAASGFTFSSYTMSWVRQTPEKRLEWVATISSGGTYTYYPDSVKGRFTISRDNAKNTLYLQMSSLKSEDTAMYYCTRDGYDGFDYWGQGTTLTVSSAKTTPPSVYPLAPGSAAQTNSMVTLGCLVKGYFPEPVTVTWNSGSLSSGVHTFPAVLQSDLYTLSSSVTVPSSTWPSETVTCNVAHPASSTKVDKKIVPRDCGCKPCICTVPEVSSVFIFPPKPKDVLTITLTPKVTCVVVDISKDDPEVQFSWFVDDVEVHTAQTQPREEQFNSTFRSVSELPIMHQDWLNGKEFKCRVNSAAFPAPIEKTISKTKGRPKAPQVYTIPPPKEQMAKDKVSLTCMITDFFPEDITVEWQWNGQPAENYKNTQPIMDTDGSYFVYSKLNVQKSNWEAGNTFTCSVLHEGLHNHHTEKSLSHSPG
light: DIVMTQTTLSLPVSPGDQASISCRSSQSLAHSNGNTYLHWYLQKPGQSPKLLIYKVSNRFSGVPDRFSGSGSGTDFTLKISRVEAEDLGVYFCSQSTLVPTFGGGTKLEIKADAAPTVSIFPPSSEQLTSGGASVVCFLNNFYPKDINVKWKIDGSERQNGVLNSWTDQDSKDSTYSMSSTLTLTKDEYERHNSYTCEATHKTSTSPIVKSFNRNEC
notes: also called MA-I; 鼠源抗体MA-Ⅰ

Key:
LILRA4 [1] = target: T1, LILRA4 (UniProt P59901 24-446, limits assumed); experiment: ELISA, coated protein 100ng/well
T1 construct: construct not described
T1 sequence (P59901 24-446 limits assumed): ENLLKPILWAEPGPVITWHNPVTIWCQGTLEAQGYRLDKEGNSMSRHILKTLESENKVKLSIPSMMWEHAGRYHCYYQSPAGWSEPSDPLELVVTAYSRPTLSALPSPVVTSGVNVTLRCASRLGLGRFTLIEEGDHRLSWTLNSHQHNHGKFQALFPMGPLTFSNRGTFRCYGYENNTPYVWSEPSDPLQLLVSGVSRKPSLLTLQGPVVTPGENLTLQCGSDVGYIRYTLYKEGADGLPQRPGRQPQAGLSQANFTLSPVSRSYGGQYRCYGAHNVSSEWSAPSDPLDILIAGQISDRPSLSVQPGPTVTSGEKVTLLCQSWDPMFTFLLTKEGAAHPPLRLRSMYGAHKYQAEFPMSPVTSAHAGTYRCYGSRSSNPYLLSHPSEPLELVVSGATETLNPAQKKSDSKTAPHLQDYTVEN

LILRA2 [2] = target: T2, LILRA2 (UniProt Q8N149 24-449, limits assumed); experiment: ELISA, coated protein 100ng/well
T2 construct: construct not described
T2 sequence (Q8N149 24-449 limits assumed): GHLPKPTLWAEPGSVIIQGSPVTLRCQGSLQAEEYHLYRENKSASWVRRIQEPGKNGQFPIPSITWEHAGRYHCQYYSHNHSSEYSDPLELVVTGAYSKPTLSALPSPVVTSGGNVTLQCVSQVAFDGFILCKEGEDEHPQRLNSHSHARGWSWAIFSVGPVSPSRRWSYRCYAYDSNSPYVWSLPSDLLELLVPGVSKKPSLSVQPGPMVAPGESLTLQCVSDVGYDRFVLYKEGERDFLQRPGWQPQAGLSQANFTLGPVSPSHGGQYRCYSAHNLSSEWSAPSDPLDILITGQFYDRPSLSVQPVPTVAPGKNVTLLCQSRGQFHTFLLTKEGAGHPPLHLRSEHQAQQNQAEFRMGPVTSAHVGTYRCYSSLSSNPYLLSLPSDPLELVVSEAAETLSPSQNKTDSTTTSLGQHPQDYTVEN

LILRA5 [3] = target: T3, LILRA5 (UniProt A6NI73 42-268, limits assumed); experiment: ELISA, coated protein 100ng/well
T3 construct: construct not described
T3 sequence (A6NI73 42-268 limits assumed): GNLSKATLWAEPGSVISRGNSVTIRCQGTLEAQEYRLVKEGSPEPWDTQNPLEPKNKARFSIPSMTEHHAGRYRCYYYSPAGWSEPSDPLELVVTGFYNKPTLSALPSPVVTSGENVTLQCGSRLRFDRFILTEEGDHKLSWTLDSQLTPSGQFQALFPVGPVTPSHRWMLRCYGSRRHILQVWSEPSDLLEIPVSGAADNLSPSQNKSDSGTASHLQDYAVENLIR

LILRB2 [4] = target: T4, LILRB2 (UniProt Q8N423 22-460, limits assumed); experiment: ELISA, coated protein 100ng/well
T4 construct: construct not described
T4 sequence (Q8N423 22-460 limits assumed): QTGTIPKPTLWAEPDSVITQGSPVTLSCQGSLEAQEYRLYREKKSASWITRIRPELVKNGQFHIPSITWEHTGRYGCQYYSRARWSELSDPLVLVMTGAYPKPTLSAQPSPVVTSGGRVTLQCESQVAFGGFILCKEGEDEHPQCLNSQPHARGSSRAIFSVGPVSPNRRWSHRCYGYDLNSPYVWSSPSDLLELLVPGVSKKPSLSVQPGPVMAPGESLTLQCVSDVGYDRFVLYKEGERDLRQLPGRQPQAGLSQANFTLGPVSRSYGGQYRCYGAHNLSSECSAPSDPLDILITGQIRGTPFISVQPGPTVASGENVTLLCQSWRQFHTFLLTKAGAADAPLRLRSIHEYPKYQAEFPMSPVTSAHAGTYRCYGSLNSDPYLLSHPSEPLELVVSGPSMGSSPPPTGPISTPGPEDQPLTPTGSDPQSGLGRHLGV

LILRB3 [5] = target: T5, LILRB3 (UniProt O75022 24-443, limits assumed); experiment: ELISA, coated protein 100ng/well
T5 construct: construct not described
T5 sequence (O75022 24-443 limits assumed): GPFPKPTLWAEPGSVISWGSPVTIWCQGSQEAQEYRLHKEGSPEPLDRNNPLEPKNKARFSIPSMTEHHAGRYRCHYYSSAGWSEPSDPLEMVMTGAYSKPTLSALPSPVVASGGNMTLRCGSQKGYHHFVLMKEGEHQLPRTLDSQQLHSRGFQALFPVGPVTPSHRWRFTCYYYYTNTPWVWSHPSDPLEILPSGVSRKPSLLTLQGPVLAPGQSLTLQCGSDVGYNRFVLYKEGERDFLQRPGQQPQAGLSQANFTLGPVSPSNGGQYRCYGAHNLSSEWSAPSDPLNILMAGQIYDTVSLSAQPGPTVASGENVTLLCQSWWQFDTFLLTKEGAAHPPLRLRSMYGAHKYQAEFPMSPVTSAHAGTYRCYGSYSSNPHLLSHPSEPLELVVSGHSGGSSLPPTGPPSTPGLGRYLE

LILRA6 [6] = target: T6, LILRA6 (UniProt Q6PI73 24-447, limits assumed); experiment: ELISA, coated protein 100ng/well
T6 construct: construct not described
T6 sequence (Q6PI73 24-447 limits assumed): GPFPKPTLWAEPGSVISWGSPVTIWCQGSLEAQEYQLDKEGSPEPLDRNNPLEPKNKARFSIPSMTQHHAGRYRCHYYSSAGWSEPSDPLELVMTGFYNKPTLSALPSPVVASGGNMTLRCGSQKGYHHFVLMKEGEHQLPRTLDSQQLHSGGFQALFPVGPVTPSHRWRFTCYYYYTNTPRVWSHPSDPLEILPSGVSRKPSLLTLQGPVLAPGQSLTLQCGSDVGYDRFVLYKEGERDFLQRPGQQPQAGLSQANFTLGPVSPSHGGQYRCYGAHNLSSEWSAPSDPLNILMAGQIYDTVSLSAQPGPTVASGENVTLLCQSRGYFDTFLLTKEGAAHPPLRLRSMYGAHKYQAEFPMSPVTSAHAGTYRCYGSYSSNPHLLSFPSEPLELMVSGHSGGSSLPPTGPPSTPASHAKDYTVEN

LILRA1 [7] = target: T7, LILRA1 (UniProt O75019 17-461, limits assumed); experiment: ELISA, coated protein 100ng/well
T7 construct: construct not described
T7 sequence (O75019 17-461 limits assumed): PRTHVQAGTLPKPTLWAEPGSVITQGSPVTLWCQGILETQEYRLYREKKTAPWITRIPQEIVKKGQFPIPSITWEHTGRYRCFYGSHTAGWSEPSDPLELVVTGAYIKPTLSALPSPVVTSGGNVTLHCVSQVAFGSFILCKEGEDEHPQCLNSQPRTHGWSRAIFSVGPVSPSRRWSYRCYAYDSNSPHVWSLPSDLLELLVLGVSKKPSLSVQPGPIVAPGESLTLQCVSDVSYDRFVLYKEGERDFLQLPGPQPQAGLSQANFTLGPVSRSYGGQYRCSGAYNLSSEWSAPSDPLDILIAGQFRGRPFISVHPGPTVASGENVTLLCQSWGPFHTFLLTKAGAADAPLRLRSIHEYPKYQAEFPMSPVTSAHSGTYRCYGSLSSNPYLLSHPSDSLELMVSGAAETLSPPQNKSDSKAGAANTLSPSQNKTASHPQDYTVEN

LILRB5 [8] = target: T8, LILRB5 (UniProt O75023 24-458, limits assumed); experiment: ELISA, coated protein 100ng/well
T8 construct: construct not described
T8 sequence (O75023 24-458 limits assumed): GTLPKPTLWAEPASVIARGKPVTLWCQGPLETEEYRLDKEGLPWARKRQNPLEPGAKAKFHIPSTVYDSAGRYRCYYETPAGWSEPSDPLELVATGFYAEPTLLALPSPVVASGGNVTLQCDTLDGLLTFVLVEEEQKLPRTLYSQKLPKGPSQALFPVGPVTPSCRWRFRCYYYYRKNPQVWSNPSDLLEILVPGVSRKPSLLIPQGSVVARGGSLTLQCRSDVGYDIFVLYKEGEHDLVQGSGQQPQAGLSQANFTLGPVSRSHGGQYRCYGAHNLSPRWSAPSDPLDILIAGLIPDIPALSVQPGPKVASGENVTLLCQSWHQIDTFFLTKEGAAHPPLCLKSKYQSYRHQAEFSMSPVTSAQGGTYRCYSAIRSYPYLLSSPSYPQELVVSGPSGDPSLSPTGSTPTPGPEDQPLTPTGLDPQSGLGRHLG

LILRB1 [9] = target: T9, LILRB1 (UniProt Q8NHL6 24-461, limits assumed); experiment: ELISA, coated protein 100ng/well
T9 construct: construct not described
T9 sequence (Q8NHL6 24-461 limits assumed): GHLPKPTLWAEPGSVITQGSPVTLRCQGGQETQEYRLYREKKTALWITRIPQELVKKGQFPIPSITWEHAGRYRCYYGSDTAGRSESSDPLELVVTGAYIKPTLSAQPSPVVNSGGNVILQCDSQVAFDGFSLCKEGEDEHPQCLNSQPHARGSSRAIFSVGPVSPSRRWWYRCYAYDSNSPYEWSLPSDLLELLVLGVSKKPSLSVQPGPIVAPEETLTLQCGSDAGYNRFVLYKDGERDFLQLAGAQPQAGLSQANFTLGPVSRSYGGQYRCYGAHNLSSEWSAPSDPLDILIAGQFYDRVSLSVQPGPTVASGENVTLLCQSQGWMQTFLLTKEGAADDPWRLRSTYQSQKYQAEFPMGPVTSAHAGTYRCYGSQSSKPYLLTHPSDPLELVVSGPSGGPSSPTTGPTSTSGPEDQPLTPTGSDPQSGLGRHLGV

LILRA3 [10] = target: T10, LILRA3 (UniProt Q8N6C8 24-439); experiment: ELISA, coated protein 100ng/well
T10 construct: construct not described
T10 sequence (Q8N6C8 24-439 limits assumed): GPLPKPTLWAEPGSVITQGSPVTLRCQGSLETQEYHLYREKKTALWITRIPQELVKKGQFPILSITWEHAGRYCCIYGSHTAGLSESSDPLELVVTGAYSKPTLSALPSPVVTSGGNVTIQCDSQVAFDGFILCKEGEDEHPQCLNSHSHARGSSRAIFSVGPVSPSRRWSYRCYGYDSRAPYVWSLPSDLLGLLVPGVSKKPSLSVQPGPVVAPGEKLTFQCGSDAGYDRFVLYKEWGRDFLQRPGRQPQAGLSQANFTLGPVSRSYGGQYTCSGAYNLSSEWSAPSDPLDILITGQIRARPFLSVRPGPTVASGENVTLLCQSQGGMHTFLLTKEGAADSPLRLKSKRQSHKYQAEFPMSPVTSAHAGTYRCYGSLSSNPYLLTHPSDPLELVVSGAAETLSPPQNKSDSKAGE

LILRA4 [11] = target: T1, LILRA4; experiment: ELISA, coated protein 100ng/well, antibody 50μg/mL
LILRA2 [12] = target: T2, LILRA2; experiment: ELISA, coated protein 100ng/well, antibody 50μg/mL
LILRA5 [13] = target: T3, LILRA5; experiment: ELISA, coated protein 100ng/well, antibody 50μg/mL
LILRB2 [14] = target: T4, LILRB2; experiment: ELISA, coated protein 100ng/well, antibody 50μg/mL
LILRB3 [15] = target: T5, LILRB3; experiment: ELISA, coated protein 100ng/well, antibody 50μg/mL
LILRB4抗原 (人LILRB4蛋白胞外段) [16] = target: T11, LILRB4抗原 (人LILRB4蛋白胞外段) (human, UniProt Q8NHJ6 22-259); experiment: ELISA, coated protein 100ng/well, antibody 50μg/mL
T11 construct: extracellular domain; also called 白细胞免疫球蛋白样受体亚家族B成员4

LILRA6 [17] = target: T6, LILRA6; experiment: ELISA, coated protein 100ng/well, antibody 50μg/mL
LILRA1 [18] = target: T7, LILRA1; experiment: ELISA, coated protein 100ng/well, antibody 50μg/mL
LILRB5 [19] = target: T8, LILRB5; experiment: ELISA, coated protein 100ng/well, antibody 50μg/mL
LILRB1 [20] = target: T9, LILRB1; experiment: ELISA, coated protein 100ng/well, antibody 50μg/mL
LILRA3 [21] = target: T10, LILRA3; experiment: ELISA, coated protein 100ng/well, antibody 50μg/mL
THP-1细胞表面的LILRB4 [22] = target: T12, THP-1细胞表面的LILRB4 (human, UniProt Q8NHJ6 22-448); experiment: flow cytometry on THP-1 cells, FITC anti-mouse IgG
T12 construct: whole, on cells; Endogenous LILRB4 on THP-1 cells; also called 人单核细胞白血病细胞(THP-1)表面LILRB4

THP-1细胞表面的LILRB4 [23] = target: T12, THP-1细胞表面的LILRB4; experiment: flow cytometry competition on THP-1 cells; competitor FITC-labelled ApoE
LILRB4抗原 (人LILRB4蛋白胞外段) [24] = target: T11, LILRB4抗原 (人LILRB4蛋白胞外段); experiment: ELISA, coated LILRB4, anti-mouse IgG-HRP
THP-1细胞表面的LILRB4 [25] = target: T12, THP-1细胞表面的LILRB4; experiment: cell-based or functional assay

| Binder | binding result (LILRA4 [1]) | binding result (LILRA2 [2]) | binding result (LILRA5 [3]) | binding result (LILRB2 [4]) | binding result (LILRB3 [5]) | binding result (LILRA6 [6]) | binding result (LILRA1 [7]) | binding result (LILRB5 [8]) | binding result (LILRB1 [9]) | binding result (LILRA3 [10]) | OD 450nm/630nm (LILRA4 [11]) [OD] | OD 450nm/630nm (LILRA2 [12]) [OD] | OD 450nm/630nm (LILRA5 [13]) [OD] | OD 450nm/630nm (LILRB2 [14]) [OD] | OD 450nm/630nm (LILRB3 [15]) [OD] | OD 450nm/630nm (LILRB4抗原 (人LILRB4蛋白胞外段) [16]) [OD] | OD 450nm/630nm (LILRA6 [17]) [OD] | OD 450nm/630nm (LILRA1 [18]) [OD] | OD 450nm/630nm (LILRB5 [19]) [OD] | OD 450nm/630nm (LILRB1 [20]) [OD] | also measured |
| --- | --- | --- | --- | --- | --- | --- | --- | --- | --- | --- | --- | --- | --- | --- | --- | --- | --- | --- | --- | --- | --- |
| B1 | no binding (tested: 50μg/mL) | no binding (tested: 50μg/mL) | no binding (tested: 50μg/mL) | no binding (tested: 50μg/mL) | no binding (tested: 50μg/mL) | no binding (tested: 50μg/mL) | no binding (tested: 50μg/mL) | no binding (tested: 50μg/mL) | no binding (tested: 50μg/mL) | no binding (tested: 50μg/mL) | 0.028 | 0.024 | 0.045 | 0.055 | 0.022 | 2.9 | 0.026 | 0.022 | 0.016 | 0.038 | OD 450nm/630nm (LILRA3 [21]): 0.056 OD; EC50 (THP-1细胞表面的LILRB4 [22]): 0.351 mg/L; IC50 (THP-1细胞表面的LILRB4 [23]): 0.44 mg/L; EC50 (LILRB4抗原 (人LILRB4蛋白胞外段) [24]): 0.0128 mg/L; IC50 of inhibition of ARG1 secretion by THP-1 cells with ApoE (arginase activity) (THP-1细胞表面的LILRB4 [25]): 46 mg/L |
| B2 | no binding (tested: 50μg/mL) | no binding (tested: 50μg/mL) | no binding (tested: 50μg/mL) | no binding (tested: 50μg/mL) | no binding (tested: 50μg/mL) | no binding (tested: 50μg/mL) | no binding (tested: 50μg/mL) | no binding (tested: 50μg/mL) | no binding (tested: 50μg/mL) | no binding (tested: 50μg/mL) | 0.092 | 0.083 | 0.077 | 0.036 | 0.072 | 2.97 | 0.054 | 0.12 | 0.197 | 0.064 | OD 450nm/630nm (LILRA3 [21]): 0.068 OD; EC50 (THP-1细胞表面的LILRB4 [22]): 0.306 mg/L; IC50 (THP-1细胞表面的LILRB4 [23]): 0.204 mg/L; EC50 (LILRB4抗原 (人LILRB4蛋白胞外段) [24]): 0.00835 mg/L; IC50 of inhibition of ARG1 secretion by THP-1 cells with ApoE (arginase activity) (THP-1细胞表面的LILRB4 [25]): 23.9 mg/L |

From patent publication CN116199779A (BEIJING DONGFANG BIOTECH CO LTD; BEIJING JINGYI TAIXIANG …, dated 2023)
